One block for each binder: values may come before it. Non-standard residues stand in square brackets, D forms with d. Primed or numbered codes have the meaning given here. azaGly′ = aza-glycine residue at the C-terminus, with NH2; Bpa = N[C@@H](Cc1ccc(C(=O)c2ccccc2)cc1)C(=O)O; d2Nal = N[C@H](Cc1ccc2ccccc2c1)C(=O)O; DO3A10CM = not defined here; Bpa4 = non-natural residue; Ampc4 = not defined here; Hypt4 = not defined here; Ppt4 = not defined here; azaGly = NNC(=O)O
What was measured:
[1] = target: LHRH receptor (LHRH binding sites) on EFO-27 human ovarian cancer cells (human); assay: competition with [125I-Tyr8]BRU-2477, EFO-27 cells
[2] = target: LHRH binding sites on EFO-27 human ovarian cancer cells (human); assay: competition with [125I-Tyr8]BRU-2477 on EFO-27 cells
[3] = target: LHRH receptor (LHRH binding sites) on EFO-27 human ovarian cancer cells (human); assay: competition with [125I-Tyr8]BRU-2477 for binding to EFO-27 cells

EC50 [1]: 350 nM
EC50 [2]: 350 nM
B1: BRU-2961 (peptide)
peptide: XRWSXXWXPX
modifications: N-terminal DO3A10CM; Dnal2 at 1; Orn at 5; Darg at 6; Bpa4 at 8; azaGly-NH2 at 10

EC50 [3]: 750 nM
Binder: XRWSHXWXP (as printed: Sar-R-W-S-H-Darg-W-Bpa4-P-Daprp13-DO3A10CM (C-terminal chelator)) [BRU-3076]

EC50 [1]: 310 nM
EC50 [2]: 310 nM
Binder: XRWSHXWXPX (DO3A10CM on N-terminus; AA1 Dbpa4; AA6 Darg; AA8 Bpa4; AA10 azaGly-NH2) [BRU-3071]

EC50 [1]: 380 nM
EC50 [2]: 380 nM
Binder: XRWSHXWXPX (DO3A10CM on N-terminus; AA1 Qua3; AA6 Darg; AA8 Bpa4; AA10 azaGly-NH2) [BRU-3057]

EC50 [1]: 410 nM
EC50 [2]: 410 nM
B2: BRU-2955 (peptide)
peptide: XRWXHXWXPX
modifications: N-terminal DO3A10CM; Dnal2 at 1; Dap at 4; Darg at 6; Bpa4 at 8; azaGly-NH2 at 10

EC50 [3]: 950 nM
EC50 [2]: 950 nM
fold improvement of EC50 against the Tyr8 analog (BRU-2758) [2]: 10 fold
Binder: XHWSHXWXPX (DO3A10CM on N-terminus; AA1 Sar; AA6 Darg; AA8 Bpa4; AA10 azaGly-NH2) [BRU-2443]

EC50 [1]: 470 nM
EC50 [2]: 470 nM
Binder: XRWSHXWXPX (DO3A10CM on N-terminus; AA1 Datdc2; AA6 Darg; AA8 Bpa4; AA10 azaGly-NH2) [BRU-3063]

EC50 [1]: 360 nM
EC50 [2]: 360 nM
B3: BRU-3049 (peptide)
peptide: XXWSHXWXPX
modifications: N-terminal DO3A10CM; Dnal2 at 1; Darg at 2; Darg at 6; Bpa4 at 8; azaGly-NH2 at 10

EC50 [3]: 650 nM
B4: BRU-2727 (peptide)
peptide: XXHWSHXWXPX
modifications: as printed: DO3A10CM-Ambz4-Sar-His-Trp-Ser-His-Darg-Trp-Bpa4-Pro-azaGly-NH2 (Ambz4 is the linker)

EC50 [1]: 280 nM
EC50 [2]: 280 nM
Binder: DO3A10CM-[d2Nal]RWSH[dR]W[Bpa4][Hypt4][azaGly]-NH2 (reading uncertain) [BRU-2952]

EC50 [3]: 1530 nM
EC50 [2]: 1550 nM
B5: BRU-2717 (peptide)
peptide: GXHWSHXWXPX
modifications: as printed: DO3A10CM-Gly-Sar-His-Trp-Ser-His-Darg-Trp-Bpa4-Pro-azaGly-NH2 (Gly is the linker)

EC50 [1]: 250 nM
EC50 [2]: 250 nM
B6: BRU-3104 (peptide)
peptide: XRXSHXWXPX
modifications: N-terminal DO3A10CM; Dnal2 at 1; Nal1 at 3; Darg at 6; Bpa4 at 8; azaGly-NH2 at 10

EC50 [1]: 240 nM
EC50 [2]: 240 nM
B7: BRU-3068 (peptide)
peptide: GXRWSHXWXPX
modifications: N-terminal DO3A10CM; Gly linker before 1; Dtpi at 1; Darg at 6; Bpa4 at 8; azaGly-NH2 at 10

EC50 [3]: 840 nM
B8: BRU-3073 (peptide)
peptide: XRWSHXWXPP
modifications: as printed: Sar-R-W-S-H-Darg-W-Bpa4-P-P-Az23po-Da15o3pt-DO3A10CM (C-terminal chelator)

EC50 [1]: 250 nM
EC50 [2]: 250 nM
Binder: XRWSRXWXPX (DO3A10CM on N-terminus; AA1 Dnal2; AA6 Darg; AA8 Bpa4; AA10 azaGly-NH2) [BRU-2959]

EC50 [1]: 830 nM
EC50 [2]: 650 nM
factor of reduced binding against BRU-2813 [2]: 2 fold
Binder: DO3A10CM-[d2Nal]RWSH[dR]W[Bpa4][Ppt4][azaGly]-NH2 (reading uncertain) [BRU-2953]

EC50 [1]: 380 nM
EC50 [2]: 380 nM
B9: BRU-3107 (peptide)
peptide: XRXSHXWXPX
modifications: N-terminal DO3A10CM; Dnal2 at 1; Amfe4 at 3; Darg at 6; Bpa4 at 8; azaGly-NH2 at 10

EC50 [1]: 150 nM
EC50 [2]: 150 nM
B10: BRU-3115 (peptide)
peptide: XRWXHXWXPX
modifications: N-terminal DO3A10CM; Dnal2 at 1; Amfe4 at 4; Darg at 6; Bpa4 at 8; azaGly-NH2 at 10

EC50 [3]: 1180 nM
B11: BRU-2733 (peptide)
peptide: GHWSHXWXPX
modifications: as printed: DO3A10CM-Gly-His-Trp-Ser-His-Darg-Trp-Bpa4-Pro-azaGly-NH2 (Gly is AA1)

EC50 [1]: 320 nM
EC50 [2]: 320 nM
B12: BRU-3062 (peptide)
peptide: DO3A10CM-[d2Nal]RWSH[dR]W[Bpa][Ampc4][azaGly′]-NH2
modifications: reading uncertain; also: printed as DO3A10CM-Dnal2-Arg-Trp-Ser-His-Darg-Trp-Bpa4-Ampc4-azaGly-NH2

EC50 [1]: 150 nM
EC50 [2]: 150 nM
Binder: XHWSHXWXPX (AA1 Mephe; AA6 Darg; AA8 Bpa4; AA10 azaGly-NH2) [BRU-2734]

EC50 [1]: 390 nM
EC50 [2]: 390 nM
Binder: XRWSHXWXPX (DO3A10CM on N-terminus; AA1 Atdc2; AA6 Darg; AA8 Bpa4; AA10 azaGly-NH2) [BRU-3055]
